Data taken from patent publication US11046988B2, “Process for the modification of a glycoprotein using a β-(1,4)-N-acetylgalactosaminyl transferase or a mutant thereof” (Synaffix B.V., priority 2014, dated 2021).

Legend:
[1] = biological target: β-(1,4)-GalNAcT (Caenorhabditis elegans, UniProt Q9GUM2); settings: sugar nucleotide as donor substrate; cited from earlier work
[2] = test system: trimmed trastuzumab (core GlcNAc(Fuc) / core GlcNAc, glycan of formula (1)); experiment: Glycosyltransfer of sugar derivative to trimmed (Endo S deglycosylated) trastuzumab, MS analysis; assay type: biochemical; settings: UDP-F2-GalNBzN3 (24) 1 mM, enzyme 0.5 mg/mL, overnight
Protocol: Trimming of IgG glycans was performed using Endo S from Streptococcus pyogenes (commercially available from Genovis, Lund, Sweden). The IgG (10 mg/mL) was incubated with Endo S (40 U/mL) in 25 mM Tris pH 8.0 for approximately 16 hours at 37° C. The deglycosylated IgG was concentrated and washed with 10 mM MnCl2 and 25 mM Tris-HCl pH 8.0 using an Amicon Ultra-0.5, Ultracel-10 Membrane (Millipore).
Trastuzumab was subjected to the trimming protocol above. Analysis of the trimmed antibody was performed on a JEOL AccuToF equipped with an Agilent 1100 HPLC. Samples (2 μL) were reduced with DTT (2 μL) during 10 min and subsequently diluted with H2O (40 μL) prior to injection. […] The two peaks of heavy chain belonged to one major product (49496 Da, 90% of total heavy chain), resulting from core GlcNAc(Fuc) substituted trastuzumab, and a minor product (49351 Da, ±10% of total heavy chain), resulting from core GlcNac substituted trastuzumab. This is an example of a glycoprotein comprising a glycan according to formula (1).
A solution of 50 μg (modified) IgG, 1 M Tris-HCl pH 8.0, 1 mM EDTA and 30 mM DTT with a total volume of approximately 70 μL was incubated for 20 minutes at 37° C. to reduce the disulfide bridges allowing to analyze both light and heavy chain. If present, azide-functionalities are reduced to amines under these conditions. Reduced samples were washed trice with milliQ using an Amicon Ultra-0.5, Ultracel-10 Membrane (Millipore) and concentrated to 10 μM (modified) IgG. The reduced IgG was analyzed by electrospray ionization time-of-flight (ESI-TOF) on a JEOL AccuTOF. Deconvoluted spectra were obtained using Magtran software.
Enzymatic introduction of galactose derivative (e.g. azido-containing sugar) onto IgG was effected with a GalNAc-transferase or a mutant thereof. The deglycosylated IgG (prepared as described above, 10 mg/mL) was incubated with a modified UDP-galactose derivative (e.g. an azido-modified sugar-UDP derivative) (0.4 mM) and GalNAcT (1 mg/mL) in 10 mM MnCl2 and 25 mM Tris-HCl pH 8.0 for 16 hours at 30° C. The functionalized IgG (e.g. azido-functionalized IgG) was incubated with protein A agarose (40 μL per mg IgG) for 2 hours at 4° C. The protein A agarose was washed three times with PBS and the IgG was eluted with 100 mM glycine-HCl pH 2.7. The eluted IgG was neutralized with 1 M Tris-HCl pH 8.0 and concentrated and washed with PBS using an Amicon Ultra-0.5, Ultracel-10 Membrane (Millipore) to a concentration of 15-20 mg/mL.
Enzymatic introduction of galactose derivative (e.g. thio-containing sugar 21) onto IgG was effected with a GalNAc-transferase or a mutant thereof. The deglycosylated IgG (prepared as described above, 10 mg/mL) was incubated with a modified UDP-galactose derivative (e.g. an thio-modified sugar-UDP derivative) (2 mM) and GalNAcT (0.2 mg/mL) in 10 mM MnCl2 and 50 mM Tris-HCl pH 6.0 for 16 hours at 30° C. The functionalized IgG (e.g. thio-functionalized trastuzumab) was incubated with protein A agarose (40 μL per mg IgG) for 1 hours at rt. The protein A agarose was washed three times with TBS (pH 6.0) and the IgG was eluted with 100 mM glycine-HCl pH 2.5. The eluted IgG was neutralized with 1 M Tris-HCl pH 7.0 and concentrated and washed with 50 mM Tris-HCl pH 6.0 using an Amicon Ultra-0.5, Ultracel-10 Membrane (Millipore) to a concentration of 15-20 mg/mL.

[3] = cited from earlier work

Sequence of β-(1,4)-GalNAcT (Q9GUM2 whole entry): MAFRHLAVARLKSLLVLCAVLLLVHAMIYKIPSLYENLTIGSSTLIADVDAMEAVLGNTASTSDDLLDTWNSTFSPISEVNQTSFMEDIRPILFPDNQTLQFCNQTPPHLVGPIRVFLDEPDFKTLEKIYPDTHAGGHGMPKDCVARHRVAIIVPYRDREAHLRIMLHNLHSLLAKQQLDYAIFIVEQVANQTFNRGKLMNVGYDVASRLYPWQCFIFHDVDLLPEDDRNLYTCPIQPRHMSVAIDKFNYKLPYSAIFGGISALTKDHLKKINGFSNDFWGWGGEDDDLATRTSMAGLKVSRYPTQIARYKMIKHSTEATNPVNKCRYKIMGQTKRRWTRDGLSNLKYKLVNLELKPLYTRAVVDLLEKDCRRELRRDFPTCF

CC(=O)N[C@H]1[C@@H](OP(=O)(O)OP(=O)(O)OC[C@H]2O[C@@H](n3ccc(=O)[nH]c3=O)[C@H](O)[C@@H]2O)O[C@H](CO)[C@@H](O)[C@@H]1O [UDP-GlcNAc]
transferase activity remaining (compared with UDP-GalNAc) [1]: 0.7%

B1: TnGalNAcT(W336H): T. ni GalNAcT mutant, tryptophan 336 to histidine, SEQ ID NO: 51 (protein)
chain: MGGRATRALRLLLLLVLALAAVEYLFGSILDASPLRTYLYTPLYNATQPTLRNVERLAANWPKKIPSNYIEDSEEYSIKNISLSNHTTRASVVHPPSSITETASKLDKNMTIQDGAFAMISPTPLLITKLMDSIKSYVTTEDGVKKAEAVVTLPLCDSMPPDLGPITLNKTELELEWVEKKFPEVEWGGRYSPPNCTARHRVAIIVPYRDRQQHLAIFLNHMHPFLMKQQIEYGIFIVEQEGNKDFNRAKLMNVGFVESQKLVAEGWQCFVFHDIDLLPLDTRNLYSCPRQPRHMSASIDKLHFKLPYEDIFGGVSAMTLEQFTRVNGFSNKYWGHGGEDDDMSYRLKKINYHIARYKMSIARYAMLDHKKSTPNPKRYQLLSQTSKTFQKDGLSTLEYELVQVVQYHLYTHILVNIDERS
cumulative conversions of the major and minor product, F2-GalNBzN3 transfer [2]: 62%

B2: TnGalNAcT(I299M): T. ni GalNAcT mutant, isoleucine 299 to methionine, SEQ ID NO: 45 (protein)
chain: MGGRATRALRLLLLLVLALAAVEYLFGSILDASPLRTYLYTPLYNATQPTLRNVERLAANWPKKIPSNYIEDSEEYSIKNISLSNHTTRASVVHPPSSITETASKLDKNMTIQDGAFAMISPTPLLITKLMDSIKSYVTTEDGVKKAEAVVTLPLCDSMPPDLGPITLNKTELELEWVEKKFPEVEWGGRYSPPNCTARHRVAIIVPYRDRQQHLAIFLNHMHPFLMKQQIEYGIFIVEQEGNKDFNRAKLMNVGFVESQKLVAEGWQCFVFHDIDLLPLDTRNLYSCPRQPRHMSASMDKLHFKLPYEDIFGGVSAMTLEQFTRVNGFSNKYWGWGGEDDDMSYRLKKINYHIARYKMSIARYAMLDHKKSTPNPKRYQLLSQTSKTFQKDGLSTLEYELVQVVQYHLYTHILVNIDERS
cumulative conversions of the major and minor product, F2-GalNBzN3 transfer [2]: 26%

B3: β4GalT(Y289L,M344H): double mutant β-1,4-galactosyltransferase 1 described by Ramakrishnan et al. (protein, UniProt P08037 1-402, looked up, variant Y289L M344H)
chain: MKFREPLLGGSAAMPGASLQRACRLLVAVCALHLGVTLVYYLAGRDLRRLPQLVGVHPPLQGSSHGAAAIGQPSGELRLRGVAPPPPLQNSSKPRSRAPSNLDAYSHPGPGPGPGSNLTSAPVPSTTTRSLTACPEESPLLVGPMLIEFNIPVDLKLVEQQNPKVKLGGRYTPMDCISPHKVAIIIPFRNRQEHLKYWLYYLHPILQRQQLDYGIYVINQAGESMFNRAKLLNVGFKEALKDYDYNCFVFSDVDLIPMNDHNTYRCFSQPRHISVAMDKFGFSLPYVQLFGGVSALSKQQFLSINGFPNNYWGWGGEDDDIYNRLAFRGMSVSRPNAVIGKCRHIRHSRDKKNEPNPQRFDRIAHTKETMLSDGLNSLTYMVLEVQRYPLYTKITVDIGTPS
activity in the presence of Mg2+ ([3]; Mg2+): 25-30%
loss of Mn2+-dependent activity ([3]; Mn2+): 98%

B4: TnGalNAcT(L302G): T. ni GalNAcT mutant, leucine 302 to glycine, SEQ ID NO: 44 (protein)
chain: MGSSHHHHHHSSGLVPRGSHMSPLRTYLYTPLYNATQPTLRNVERLAANWPKKIPSNYIEDSEEYSIKNISLSNHTTRASVVHPPSSITETASKLDKNMTIQDGAFAMISPTPLLITKLMDSIKSYVTTEDGVKKAEAVVTLPLCDSMPPDLGPITLNKTELELEWVEKKFPEVEWGGRYSPPNCTARHRVAIIVPYRDRQQHLAIFLNHMHPFLMKQQIEYGIFIVEQEGNKDFNRAKLMNVGFVESQKLVAEGWQCFVFHDIDLLPLDTRNLYSCPRQPRHMSASIDKGHFKLPYEDIFGGVSAMTLEQFTRVNGFSNKYWGWGGEDDDMSYRLKKINYHIARYKMSIARYAMLDHKKSTPNPKRYQLLSQTSKTFQKDGLSTLEYELVQVVQYHLYTHILVNIDERS
modifications: His6-TnGalNAcT(33-421; L302G)
cumulative conversions of the major and minor product, F2-GalNBzN3 transfer [2]: 14%
